Data as given in paper PMC9407403 (Proceedings of the National Academy of Sciences of the …, 2022).

Target: T1, SARS-CoV-2 WT spike (S) protein (SARS-CoV-2 prototype Wuhan-Hu-1 …, UniProt P0DTC2)
T1 construct: source: bought: Sino Biological Inc., purified
Test: cryo-EM structure
Settings: both partners purified

B1: Fab fragment of nAb X01 (Fab, V domains shown)
VH: EIQLQQSGPELVAPGASVKVSCKASGYAFTSYNMYWVRQSHGKSLEWIGYIVPYNGGTTYNQEFKGKATLTVDKSSNTAYIHLNSLTSEDSAVYYCAKEGTYYGYDGVLADWGQGTLVT
VL: DIQMTQSSSYLSVSLGGRVTITCKASDHINNWLAWYQQKPGNAPRLLISGVTNLETGVPSRFSGSGSGKNFTLSIASLQTEDVATYYCQQYWSFPWTFGGGTKLEIR
B1: binds.

B2: Fab fragment of nAb X10 (Fab, V domains shown)
VH: EVQLQQSGPELVKPGASVKISCKTSGYTFTEYTLHWVKQSHGKSLEWIGGFDPNFGGATYNLKFEDKATLTVDKSSNTAYMELRSLTSEDSAVFYCARGDYGTSYAYFDFWGQGTTLTVSS
VL: DIVLTQSPASLAVSLGQRAAISCRASQSVSTSSHNYVHWYQQRPGQPPKLLIKYASNLECGVPARFSGSGSGTDFTLNIHPVEEEDSAAYYCQHSWEIPYTFGGGTKLEIK
B2: binds.
